Patent US20220111022A1 (IMMATICS BIOTECHNOLOGIES, published 2022)

What follows are binders tested against T1, HLA-A*02:01 (human) (assay: UV-ligand exchange, anti-b2m ELISA; peptide exchange yield grade).
T1 construct: MHC monomers first loaded with a UV-sensitive peptide (not identified) that is cleaved and exchanged for the test peptide; captured on streptavidin-coated plates and detected with anti-β2m; also called peptide-receptive MHC molecules; MHC class I
Excerpt: Candidate peptides for T cell based therapies according to the present invention were further tested for their MHC binding capacity (affinity). The individual peptide-MHC complexes were produced by UV-ligand exchange, where a UV-sensitive peptide is cleaved upon UV-irradiation and exchanged with the peptide of interest as analyzed. Only peptide candidates that can effectively bind and stabilize the peptide-receptive MHC molecules prevent dissociation of the MHC complexes. To determine the yield of the exchange reaction, an ELISA was performed based on the detection of the light chain (β2m) of stabilized MHC complexes. The assay was performed as generally described in Rodenko et al. (Rodenko et al., 2006).
96 well MAXISorp plates (NUNC) were coated over night with 2 μg/ml streptavidin in PBS at room temperature, washed 4× and blocked for 1 h at 37° C. in 2% BSA containing blocking buffer. Refolded HLA-A*02:01/MLA-001 monomers served as standards, covering the range of 15-500 ng/ml. Peptide-MHC monomers of the UV-exchange reaction were diluted 100-fold in blocking buffer. Samples were incubated for 1 h at 37° C., washed four times, incubated with 2 μg/ml HRP conjugated anti-β2m for 1h at 37° C., washed again and detected with TMB solution that is stopped with […]. Absorption was measured at 450 nm. Candidate peptides that show a high exchange yield (preferably higher than 50%, most preferred higher than 75%) are generally preferred for a generation and production of antibodies or fragments thereof, and/or T cell receptors or fragments thereof, as they show sufficient avidity to the MHC molecules and prevent dissociation of the MHC complexes.

| peptide exchange yield | Binder |
| --- | --- |
| ≥ 75% | GLVDGSSVTV |
| ≥ 75% | KTWDQSIAL |
| ≥ 75% | VLMDGTLKQV |
| ≥ 75% | NVDSTILNL |
| ≥ 75% | FLGPIVDL |
| 50 to 75% | AIYHDITGISV |
| ≥ 75% | FLNLFDHTL |
| 50 to 75% | AVFDQTVTVI |
| ≥ 75% | FMNDRSFIL |
| 50 to 75% | AIDDTAARL |
| 50 to 75% | VIDSTLVKV |
| 50 to 75% | QLMEKVQDV |
| 50 to 75% | VLDDTLVIF |
| ≥ 75% | QLLGRDISL |
| 50 to 75% | IQDTSHLAV |
| 50 to 75% | ILTDITGHDV |
| ≥ 75% | ALADLTGTVVNL |
| ≥ 75% | SLFDDSFSL |
| 50 to 75% | SLYDFTGEQMAA |
| ≥ 75% | WLIDKSMEL |
| 50 to 75% | ILDEAKDISF |
| 50 to 75% | KLISDMGKDVSA |

Second part, the binder before the results:

| Binder | peptide exchange yield |
| --- | --- |
| SLRDGTEVV | 50 to 75% |
| SLSDVSQAV | 50 to 75% |
| YVWDRTELL | ≥ 75% |
| KLLNDLTSI | ≥ 75% |
| TLIDATWLV | ≥ 75% |
| LLDATHQI | ≥ 75% |
| FVDEHTIDI | 50 to 75% |
| ILFDDSVFTL | ≥ 75% |
| ALDDYTITF | ≥ 75% |
| FLDTSTADV | ≥ 75% |
| RLLDTTDVYLL | ≥ 75% |
| ILYDGSNIQL | ≥ 75% |
| YLFEDISQL | ≥ 75% |
| FLLDGTDMFHM | 50 to 75% |
| TLDATVVEL | ≥ 75% |
| KLEERVYDV | ≥ 75% |

| Binder | peptide exchange yield |
| --- | --- |
| HLCNHDVSL | ≥ 75% |
| SLFAYPLPDV | ≥ 75% |
| FLGEDISNFL | ≥ 75% |
| YMDGTMSQV | 50 to 75% |
| KLLDLTVRI | ≥ 75% |
| ALPQFFNDV | ≥ 75% |
| RLLEGDFSL | ≥ 75% |
| FLDQTDETL | 50 to 75% |
| SLLDGSESAKL | ≥ 75% |
| ILFDLTHRV | ≥ 75% |
| YIYDGKDMSSL | 50 to 75% |
| AVDGTDARL | 50 to 75% |
| ALYDSTRELL | ≥ 75% |
| HMIDLTIHL | 50 to 75% |
| ILDSTTIEI | ≥ 75% |
| SLLFQDITL | ≥ 75% |
